# Source: article PMC4431178, “Molecular basis of sugar recognition by collectin-K1 and the effects of mutations associated with 3MC syndrome” (BMC Biology, 2015)
# Target: T1, CL-K1 (Homo sapiens, UniProt Q9BWP8)
# T1 construct: For full-length protein, the cDNA was cloned into the polylinker region of expression vector pED; made in house; host or cells: Chinese hamster ovary cells
# Assay: Surface plasmon resonance of CL-K1 binding to glycoproteins
# Details: glycoprotein starting concentration 200 nM
# Procedure: Figure 1 Glycoprotein binding and complement activation by CL-K1. A) Immunoblot of CL-K1 binding to immobilised mammalian and yeast glycoproteins. B) Surface plasmon resonance of CL-K1 binding to glycoproteins. […] C3b and its breakdown products were detected by absorbance using an anti-human C3c antibody with alkaline phosphatase-conjugated goat anti-rabbit secondary antibody and p-nitrophenyl phosphate as the substrate. Protein concentrations were calculated based on the molecular masses of CL-K1 and MBL trimers (78 kDa in each case). CL-K1, collectin-K1; MBL, mannan-binding lectin.
# CL-K1 was immobilised on the surface of a GLM sensor chip (Bio-Rad Laboratories Ltd (Hemel Hempstead, UK)) by amine coupling. Binding was measured in 10 mM Tris–HCl, pH 7.4 containing 140 mM NaCl, 2 mM CaCl2 and 0.005% Tween 20 at a flow rate of 25 μl/minute and at 25°C. The protein surface was regenerated in buffer containing 1 M NaCl and 5 mM EDTA.
# T1 sequence (Q9BWP8 26-271): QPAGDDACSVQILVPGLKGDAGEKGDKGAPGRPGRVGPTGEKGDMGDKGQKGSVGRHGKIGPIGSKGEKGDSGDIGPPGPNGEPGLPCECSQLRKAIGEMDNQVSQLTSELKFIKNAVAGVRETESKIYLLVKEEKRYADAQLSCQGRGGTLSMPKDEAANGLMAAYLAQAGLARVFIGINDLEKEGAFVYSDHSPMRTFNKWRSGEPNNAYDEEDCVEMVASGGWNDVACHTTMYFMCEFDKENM
molecule,measurement,value
"milk lactoferrin: human milk lactoferrin, contains complex sugars (protein, UniProt P02788 20-710, looked up) Lactotransferrin: GRRRSVQWCAVSQPEATKCFQWQRNMRKVRGPPVSCIKRDSPIQCIQAIAENRADAVTLDGGFIYEAGLAPYKLRPVAAEVYGTERQPRTHYYAVAVVKKGGSFQLNELQGLKSCHTGLRRTAGWNVPIGTLRPFLNWTGPPEPIEAAVARFFSASCVPGADKGQFPNLCRLCAGTGENKCAFSSQEPYFSYSGAFKCLRDGAGDVAFIRESTVFEDLSDEAERDEYELLCPDNTRKPVDKFKDCHLARVPSHAVVARSVNGKEDAIWNLLRQAQEKFGKDKSPKFQLFGSPSGQKDLLFKDSAIGFSRVPPRIDSGLYLGSGYFTAIQNLRKSEEEVAARRARVVWCAVGEQELRKCNQWSGLSEGSVTCSSASTTEDCIALVLKGEADAMSLDGGYVYTAGKCGLVPVLAENYKSQQSSDPDPNCVDRPVEGYLAVAVVRRSDTSLTWNSVKGKKSCHTAVDRTAGWNIPMGLLFNQTGSCKFDEYFSQSCAPGSDPRSNLCALCIGDEQGENKCVPNSNERYYGYTGAFRCLAENAGDVAFVKDVTVLQNTDGNNNEAWAKDLKLADFALLCLDGKRKPVTEARSCHLAMAPNHAVVSRMDKVERLKQVLLHQQAKFGRNGSDCPDKFCLFQSETKNLLFNDNTECLARLHGKTTYEKYLGPQYVAGITNLKKCSTSPLLEACEFLRK",binding to CL-K1 by surface plasmon resonance,not
